{
  "source": "the Human Domainome abundance scans (Beltran et al. 2025)",
  "note": "± gives the uncertainty stated by the source.",
  "data": [
    {"test": "abundance fitness (aPCA) (normalised: wild type 0, dead -1); higher = more abundant; growth selection in yeast, the domain comes from the species named", "settings": "Homo sapiens", "values": [
      {"substance": "Scaffold attachment factor B2 E66F, Q14151", "abundance fitness": "-0.417 ± 0.13"},
      {"substance": "Scaffold attachment factor B2 E66G, Q14151", "abundance fitness": "-0.108 ± 0.083"},
      {"substance": "Scaffold attachment factor B2 E66H, Q14151", "abundance fitness": "-0.214 ± 0.11"},
      {"substance": "Scaffold attachment factor B2 E66I, Q14151", "abundance fitness": "-0.207 ± 0.15"},
      {"substance": "Scaffold attachment factor B2 E66K, Q14151", "abundance fitness": "-0.5 ± 0.26"},
      {"substance": "Scaffold attachment factor B2 E66L, Q14151", "abundance fitness": "-0.247 ± 0.1"},
      {"substance": "Scaffold attachment factor B2 E66M, Q14151", "abundance fitness": "-0.329 ± 0.12"},
      {"substance": "Scaffold attachment factor B2 E66N, Q14151", "abundance fitness": "-0.322 ± 0.26"},
      {"substance": "Scaffold attachment factor B2 E66P, Q14151", "abundance fitness": "-0.485 ± 0.16"},
      {"substance": "Scaffold attachment factor B2 E66R, Q14151", "abundance fitness": "-0.131 ± 0.071"},
      {"substance": "Scaffold attachment factor B2 E66T, Q14151", "abundance fitness": "-0.301 ± 0.21"},
      {"substance": "Scaffold attachment factor B2 E66V, Q14151", "abundance fitness": "-0.232 ± 0.1"},
      {"substance": "Scaffold attachment factor B2 E66W, Q14151", "abundance fitness": "-0.365 ± 0.12"},
      {"substance": "Scaffold attachment factor B2 E67A, Q14151", "abundance fitness": "-0.23 ± 0.12"},
      {"substance": "Scaffold attachment factor B2 E67C, Q14151", "abundance fitness": "-0.433 ± 0.12"},
      {"substance": "Scaffold attachment factor B2 E67H, Q14151", "abundance fitness": "-0.218 ± 0.4"},
      {"substance": "Scaffold attachment factor B2 E67L, Q14151", "abundance fitness": "-0.495 ± 0.094"},
      {"substance": "Scaffold attachment factor B2 E67M, Q14151", "abundance fitness": "-0.525 ± 0.11"},
      {"substance": "Scaffold attachment factor B2 E67P, Q14151", "abundance fitness": "-0.377 ± 0.12"},
      {"substance": "Scaffold attachment factor B2 E67Q, Q14151", "abundance fitness": "-0.246 ± 0.1"},
      {"substance": "Scaffold attachment factor B2 E67R, Q14151", "abundance fitness": "-0.445 ± 0.1"},
      {"substance": "Scaffold attachment factor B2 E67S, Q14151", "abundance fitness": "-0.226 ± 0.095"},
      {"substance": "Scaffold attachment factor B2 E67T, Q14151", "abundance fitness": "-0.381 ± 0.1"},
      {"substance": "Scaffold attachment factor B2 E67V, Q14151", "abundance fitness": "-0.333 ± 0.1"},
      {"substance": "Scaffold attachment factor B2 E67W, Q14151", "abundance fitness": "-0.85 ± 0.11"},
      {"substance": "Scaffold attachment factor B2 E67Y, Q14151", "abundance fitness": "-0.889 ± 0.34"},
      {"substance": "Scaffold attachment factor B2 G50A, Q14151", "abundance fitness": "-0.099 ± 0.089"},
      {"substance": "Scaffold attachment factor B2 G50C, Q14151", "abundance fitness": "-0.082 ± 0.12"},
      {"substance": "Scaffold attachment factor B2 G50D, Q14151", "abundance fitness": "-0.171 ± 0.12"},
      {"substance": "Scaffold attachment factor B2 G50E, Q14151", "abundance fitness": "-0.119 ± 0.084"},
      {"substance": "Scaffold attachment factor B2 G50F, Q14151", "abundance fitness": "-0.51 ± 0.17"},
      {"substance": "Scaffold attachment factor B2 G50H, Q14151", "abundance fitness": "-0.108 ± 0.093"},
      {"substance": "Scaffold attachment factor B2 G50L, Q14151", "abundance fitness": "-0.194 ± 0.08"},
      {"substance": "Scaffold attachment factor B2 G50M, Q14151", "abundance fitness": "-0.114 ± 0.11"},
      {"substance": "Scaffold attachment factor B2 G50N, Q14151", "abundance fitness": "-0.065 ± 0.1"},
      {"substance": "Scaffold attachment factor B2 G50P, Q14151", "abundance fitness": "-1.01 ± 0.16"},
      {"substance": "Scaffold attachment factor B2 G50Q, Q14151", "abundance fitness": "-0.329 ± 0.12"},
      {"substance": "Scaffold attachment factor B2 G50R, Q14151", "abundance fitness": "0.05 ± 0.079"},
      {"substance": "Scaffold attachment factor B2 G50S, Q14151", "abundance fitness": "-0.077 ± 0.11"},
      {"substance": "Scaffold attachment factor B2 G50T, Q14151", "abundance fitness": "-0.096 ± 0.17"},
      {"substance": "Scaffold attachment factor B2 G50V, Q14151", "abundance fitness": "-0.015 ± 0.08"},
      {"substance": "Scaffold attachment factor B2 G50W, Q14151", "abundance fitness": "-0.26 ± 0.089"},
      {"substance": "Scaffold attachment factor B2 G51C, Q14151", "abundance fitness": "-0.517 ± 0.13"},
      {"substance": "Scaffold attachment factor B2 G51D, Q14151", "abundance fitness": "-0.7 ± 0.14"},
      {"substance": "Scaffold attachment factor B2 G51E, Q14151", "abundance fitness": "-0.426 ± 0.094"},
      {"substance": "Scaffold attachment factor B2 G51F, Q14151", "abundance fitness": "-0.882 ± 0.19"},
      {"substance": "Scaffold attachment factor B2 G51I, Q14151", "abundance fitness": "-1.25 ± 0.4"},
      {"substance": "Scaffold attachment factor B2 G51K, Q14151", "abundance fitness": "-0.786 ± 0.15"},
      {"substance": "Scaffold attachment factor B2 G51L, Q14151", "abundance fitness": "-0.908 ± 0.087"},
      {"substance": "Scaffold attachment factor B2 G51M, Q14151", "abundance fitness": "-0.853 ± 0.12"},
      {"substance": "Scaffold attachment factor B2 G51N, Q14151", "abundance fitness": "-0.833 ± 0.25"},
      {"substance": "Scaffold attachment factor B2 G51P, Q14151", "abundance fitness": "-0.998 ± 0.26"},
      {"substance": "Scaffold attachment factor B2 G51Q, Q14151", "abundance fitness": "-0.704 ± 0.096"},
      {"substance": "Scaffold attachment factor B2 G51R, Q14151", "abundance fitness": "-0.794 ± 0.072"},
      {"substance": "Scaffold attachment factor B2 G51S, Q14151", "abundance fitness": "-0.597 ± 0.085"},
      {"substance": "Scaffold attachment factor B2 G51T, Q14151", "abundance fitness": "-0.633 ± 0.1"},
      {"substance": "Scaffold attachment factor B2 G51V, Q14151", "abundance fitness": "-0.729 ± 0.084"},
      {"substance": "Scaffold attachment factor B2 G51W, Q14151", "abundance fitness": "-1.41 ± 0.1"},
      {"substance": "Scaffold attachment factor B2 G68A, Q14151", "abundance fitness": "0.004 ± 0.094"},
      {"substance": "Scaffold attachment factor B2 G68E, Q14151", "abundance fitness": "0.166 ± 0.095"},
      {"substance": "Scaffold attachment factor B2 G68F, Q14151", "abundance fitness": "-0.509 ± 0.17"},
      {"substance": "Scaffold attachment factor B2 G68I, Q14151", "abundance fitness": "-0.551 ± 0.099"},
      {"substance": "Scaffold attachment factor B2 G68K, Q14151", "abundance fitness": "0.232 ± 0.25"},
      {"substance": "Scaffold attachment factor B2 G68L, Q14151", "abundance fitness": "-0.365 ± 0.098"},
      {"substance": "Scaffold attachment factor B2 G68M, Q14151", "abundance fitness": "-0.33 ± 0.12"},
      {"substance": "Scaffold attachment factor B2 G68P, Q14151", "abundance fitness": "-0.19 ± 0.13"},
      {"substance": "Scaffold attachment factor B2 G68Q, Q14151", "abundance fitness": "-0.078 ± 0.1"},
      {"substance": "Scaffold attachment factor B2 G68S, Q14151", "abundance fitness": "-0.178 ± 0.12"},
      {"substance": "Scaffold attachment factor B2 G68T, Q14151", "abundance fitness": "-0.026 ± 0.12"},
      {"substance": "Scaffold attachment factor B2 G68V, Q14151", "abundance fitness": "-0.169 ± 0.092"},
      {"substance": "Scaffold attachment factor B2 I36A, Q14151", "abundance fitness": "0.153 ± 0.082"},
      {"substance": "Scaffold attachment factor B2 I36C, Q14151", "abundance fitness": "0.086 ± 0.099"},
      {"substance": "Scaffold attachment factor B2 I36D, Q14151", "abundance fitness": "0.206 ± 0.18"},
      {"substance": "Scaffold attachment factor B2 I36E, Q14151", "abundance fitness": "0.157 ± 0.13"},
      {"substance": "Scaffold attachment factor B2 I36F, Q14151", "abundance fitness": "-0.507 ± 0.17"},
      {"substance": "Scaffold attachment factor B2 I36G, Q14151", "abundance fitness": "0.066 ± 0.068"},
      {"substance": "Scaffold attachment factor B2 I36H, Q14151", "abundance fitness": "-0.208 ± 0.2"},
      {"substance": "Scaffold attachment factor B2 I36K, Q14151", "abundance fitness": "0.04 ± 0.089"},
      {"substance": "Scaffold attachment factor B2 I36L, Q14151", "abundance fitness": "-0.103 ± 0.087"},
      {"substance": "Scaffold attachment factor B2 I36M, Q14151", "abundance fitness": "0.043 ± 0.17"},
      {"substance": "Scaffold attachment factor B2 I36N, Q14151", "abundance fitness": "-0.073 ± 0.13"},
      {"substance": "Scaffold attachment factor B2 I36P, Q14151", "abundance fitness": "0.067 ± 0.096"},
      {"substance": "Scaffold attachment factor B2 I36Q, Q14151", "abundance fitness": "0.08 ± 0.12"},
      {"substance": "Scaffold attachment factor B2 I36R, Q14151", "abundance fitness": "0.079 ± 0.071"},
      {"substance": "Scaffold attachment factor B2 I36S, Q14151", "abundance fitness": "0.127 ± 0.081"},
      {"substance": "Scaffold attachment factor B2 I36T, Q14151", "abundance fitness": "0.173 ± 0.12"},
      {"substance": "Scaffold attachment factor B2 I36V, Q14151", "abundance fitness": "-0.002 ± 0.091"},
      {"substance": "Scaffold attachment factor B2 K43A, Q14151", "abundance fitness": "0.022 ± 0.097"},
      {"substance": "Scaffold attachment factor B2 K43C, Q14151", "abundance fitness": "-0.271 ± 0.12"},
      {"substance": "Scaffold attachment factor B2 K43D, Q14151", "abundance fitness": "-0.147 ± 0.11"},
      {"substance": "Scaffold attachment factor B2 K43E, Q14151", "abundance fitness": "-0.071 ± 0.084"},
      {"substance": "Scaffold attachment factor B2 K43F, Q14151", "abundance fitness": "-0.601 ± 0.15"},
      {"substance": "Scaffold attachment factor B2 K43G, Q14151", "abundance fitness": "-0.172 ± 0.074"},
      {"substance": "Scaffold attachment factor B2 K43I, Q14151", "abundance fitness": "-0.599 ± 0.17"},
      {"substance": "Scaffold attachment factor B2 K43L, Q14151", "abundance fitness": "-0.191 ± 0.089"},
      {"substance": "Scaffold attachment factor B2 K43N, Q14151", "abundance fitness": "-0.367 ± 0.2"},
      {"substance": "Scaffold attachment factor B2 K43P, Q14151", "abundance fitness": "-0.486 ± 0.12"},
      {"substance": "Scaffold attachment factor B2 K43Q, Q14151", "abundance fitness": "-0.124 ± 0.096"},
      {"substance": "Scaffold attachment factor B2 K43R, Q14151", "abundance fitness": "-0.104 ± 0.076"},
      {"substance": "Scaffold attachment factor B2 K43S, Q14151", "abundance fitness": "-0.057 ± 0.091"},
      {"substance": "Scaffold attachment factor B2 K43T, Q14151", "abundance fitness": "-0.217 ± 0.1"},
      {"substance": "Scaffold attachment factor B2 K43V, Q14151", "abundance fitness": "-0.149 ± 0.1"},
      {"substance": "Scaffold attachment factor B2 K43W, Q14151", "abundance fitness": "-0.359 ± 0.094"},
      {"substance": "Scaffold attachment factor B2 K43Y, Q14151", "abundance fitness": "-0.961 ± 0.25"},
      {"substance": "Scaffold attachment factor B2 K44A, Q14151", "abundance fitness": "-0.067 ± 0.08"},
      {"substance": "Scaffold attachment factor B2 K44C, Q14151", "abundance fitness": "-0.48 ± 0.12"},
      {"substance": "Scaffold attachment factor B2 K44D, Q14151", "abundance fitness": "-0.549 ± 0.19"},
      {"substance": "Scaffold attachment factor B2 K44E, Q14151", "abundance fitness": "-0.219 ± 0.091"},
      {"substance": "Scaffold attachment factor B2 K44F, Q14151", "abundance fitness": "-0.61 ± 0.12"},
      {"substance": "Scaffold attachment factor B2 K44G, Q14151", "abundance fitness": "-0.225 ± 0.072"}
    ]}
  ]
}
